Results from US20130217582, “Library Compositions and Methods for Acyclic Identification of Aptamers” (published 2013).

Target: Coagulation factor IXa (FIXa) (Homo sapiens, UniProt P00740;P00740 P00740:47-191,P00740:227-461)
Assay: EMSA; estimated by mobility shift compared to a known FIXa aptamer; native PAGE 4 C; T7 transcript starts with GG before F5
Details: tags: Haematologic Technologies; immobilized on con-A beads for partitioning; putative G/U quadruplex

Chain of Coagulation factor IXa (FIXa) (P00740 47-191, chain 1 of 2): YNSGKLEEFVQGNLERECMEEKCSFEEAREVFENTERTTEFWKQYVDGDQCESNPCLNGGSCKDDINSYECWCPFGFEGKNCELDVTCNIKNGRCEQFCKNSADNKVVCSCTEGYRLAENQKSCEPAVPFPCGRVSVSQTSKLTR
Chain of Coagulation factor IXa (FIXa) (P00740 227-461, chain 2 of 2): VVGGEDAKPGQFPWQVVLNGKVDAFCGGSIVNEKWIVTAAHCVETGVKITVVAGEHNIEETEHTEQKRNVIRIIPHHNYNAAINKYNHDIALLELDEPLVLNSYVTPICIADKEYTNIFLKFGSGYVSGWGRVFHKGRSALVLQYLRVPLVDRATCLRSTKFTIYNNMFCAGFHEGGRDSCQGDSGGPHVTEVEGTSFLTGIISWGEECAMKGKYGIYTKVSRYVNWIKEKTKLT

Row | Binder | Kd
1 | FIXa aptamer rank 2 (SEQ 114/151) (ssRNA) RNA: ACGACGCUCUUCCGAUCUAUGGAGGGCAGCCCGGUAGUCGCCCACGGGGAACGCGUCAAGCUAACGGAGCUCGUAUGC | ~220 nM
2 | FIXa aptamer rank 1 (SEQ 133/150) (ssRNA) RNA: ACGACGCUCUUCCGAUCUAUGGUUCCAGUCGGUGAACUUCCUGAGUCCGGUGUGUGCAAGCUAACGGAGCUCGUAUGC | ~220 nM
3 | FIXa aptamer rank 3 (SEQ 122/152) (ssRNA) RNA: ACGACGCUCUUCCGAUCUAUGGUCAUACGCGCAGGCUGGAGGUAUUACCCCCCGGGCAAGCUAACGGAGCUCGUAUGC | ~700 nM
